Test results reported in publication PMC11555622.

How the values were obtained:
[1] = confocal microscopy, polarized MDCK; settings: glycan lost
[2] = surface biotinylation, amount of DUOX1 at cell surface; settings: glycan lost; control: wild type DUOXA1
[3] = immunoblot of HEK293 lysate; settings: glycan lost
[4] = domain-selective surface biotinylation, apical vs basolateral; settings: glycan lost
[5] = surface biotinylation, amount of DUOX2 at cell surface; settings: glycan lost; control: wild type DUOXA2

Row | Protein | localisation_or_trafficking ([1]; control: wild type DUOXA1) | localisation_or_trafficking [2] | expression_or_secretion ([3]; control: wild type DUOXA1) | localisation_or_trafficking ([4]; control: wild type DUOXA1) | localisation_or_trafficking [5] | localisation_or_trafficking ([1]; control: wild type DUOXA2) | expression_or_secretion ([3]; control: wild type DUOXA2) | localisation_or_trafficking ([4]; control: wild type DUOXA2)
1 | DUOXA1: N84Q/N109Q/N121Q (protein) parent chain: MATLGHTFPFYAGPKPTFPMDTTLASIIMIFLTALATFIVILPGIRGKTRLFWLLRVVTSLFIGAAILAVNFSSEWSVGQVSTNTSYKAFSSEWISADIGLQVGLGGVNITLTGTPVQQLNETINYNEEFTWRLGENYAEEYAKALEKGLPDPVLYLAEKFTPRSPCGLYRQYRLAGHYTSAMLWVAFLCWLLANVMLSMPVLVYGGYMLLATGIFQLLALLFFSMATSLTSPCPLHLGASVLHTHHGPAFWITLTTGLLCVLLGLAMAVAHRMQPHRLKAFFNQSVDEDPMLEWSPEEGGLLSPRYRSMADSPKSQDIPLSEASSTKAYCKEAHPKDPDCAL | changes | decreases | no change | changes | – | – | – | –
2 | DUOXA2: N84Q/N109Q/N121Q (protein) parent chain: MTLWNGVLPFYPQPRHAAGFSVPLLIVILVFLALAASFLLILPGIRGHSRWFWLVRVLLSLFIGAEIVAVHFSAEWFVGTVNTNTSYKAFSAARVTARVRLLVGLEGINITLTGTPVHQLNETIDYNEQFTWRLKENYAAEYANALEKGLPDPVLYLAEKFTPSSPCGLYHQYHLAGHYASATLWVAFCFWLLSNVLLSTPAPLYGGLALLTTGAFALFGVFALASISSVPLCPLRLGSSALTTQYGAAFWVTLATGVLCLFLGGAVVSLQYVRPSALRTLLDQSAKDCSQERGGSPLILGDPLHKQAALPDLKCITTNL | – | – | – | – | decreases | no change | decreases | no change
